Measurements: patent US20160223529A1 (UNIVERSITY OF QUEENSLAND, published 2016)

Tests used:
[1] = biological target: T1, TVMV-AI-ePDZ-Binder; experiment: Protease activation assay: TVMV activity on a fluorogenic substrate (FIG. 5)
T1 chain: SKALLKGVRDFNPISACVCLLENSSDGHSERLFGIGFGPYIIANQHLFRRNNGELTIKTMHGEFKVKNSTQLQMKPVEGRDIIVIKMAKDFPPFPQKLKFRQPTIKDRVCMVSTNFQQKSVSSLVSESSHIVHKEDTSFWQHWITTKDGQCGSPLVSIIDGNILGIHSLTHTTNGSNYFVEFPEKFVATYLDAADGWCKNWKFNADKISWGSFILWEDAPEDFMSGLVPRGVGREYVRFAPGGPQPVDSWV

[2] = biological target: Calmodulin (Homo sapiens (Human), UniProt P0DP23 4-149); experiment: Protease activation assay: TVMV activity on a fluorogenic substrate at different calmodulin concentrations (FIG. 3)

B1: ePDZ (designed binder)
chain: SGTSPELGFSISGGVGGRGNPFRPDDDGIFVTRVQPEGPASKLLQPGDKIIQANGYSFINIEHGQAVSLLKTFQNTVELIIVREVGNGAKQEIRVRVEKDGGSGGVSSVPTNLEVVAATPTSLLISWDASYYGVSYYRITYGETGGNSPVQEFTVPYSSSTATISGLKPGVDYTITVYAYSDYYGSHHYSPISINYRTSGC
- binding result [1]: binds

B2: TVMV-AI-CalmodulinBinder (enzyme)
chain: SKALLKGVRDFNPISACVCLLENSSDGHSERLFGIGFGPYIIANQHLFRRNNGELTIKTMHGEFKVKNSTQLQMKPVEGRDIIVIKMAKDFPPFPQKLKFRQPTIKDRVCMVSTNFQQKSVSSLVSESSHIVHKEDTSFWQHWITTKDGQCGSPLVSIIDGNILGIHSLTHTTNGSNYFVEFPEKFVATYLDAADGWCKNWKFNADKISWGSFILWEDAPEDFMSGLVPRGVGREYVRFAPRWKKNFIAVSAANRFKKISSSGAL
notes: also called TVMV based calmodulin sensor
- binding result [2]: binds
